Measurements from patent publication US11981943B2, “Methods and composition for detecting CAPN5” (UNIVERSITY OF IOWA RESEARCH FOUNDATION, priority 2016, dated 2024).
“Also recorded” adds a separate entry of the source.

Assays:
Type in all cases: biochemical
CAPN1 WT [1] = target: T1, CAPN1 WT (Homo sapiens, UniProt P07384); assay: Inhibition of CAPN1 WT proteolysis of EPLFAERK substrate
T1 sequence (P07384 1-714): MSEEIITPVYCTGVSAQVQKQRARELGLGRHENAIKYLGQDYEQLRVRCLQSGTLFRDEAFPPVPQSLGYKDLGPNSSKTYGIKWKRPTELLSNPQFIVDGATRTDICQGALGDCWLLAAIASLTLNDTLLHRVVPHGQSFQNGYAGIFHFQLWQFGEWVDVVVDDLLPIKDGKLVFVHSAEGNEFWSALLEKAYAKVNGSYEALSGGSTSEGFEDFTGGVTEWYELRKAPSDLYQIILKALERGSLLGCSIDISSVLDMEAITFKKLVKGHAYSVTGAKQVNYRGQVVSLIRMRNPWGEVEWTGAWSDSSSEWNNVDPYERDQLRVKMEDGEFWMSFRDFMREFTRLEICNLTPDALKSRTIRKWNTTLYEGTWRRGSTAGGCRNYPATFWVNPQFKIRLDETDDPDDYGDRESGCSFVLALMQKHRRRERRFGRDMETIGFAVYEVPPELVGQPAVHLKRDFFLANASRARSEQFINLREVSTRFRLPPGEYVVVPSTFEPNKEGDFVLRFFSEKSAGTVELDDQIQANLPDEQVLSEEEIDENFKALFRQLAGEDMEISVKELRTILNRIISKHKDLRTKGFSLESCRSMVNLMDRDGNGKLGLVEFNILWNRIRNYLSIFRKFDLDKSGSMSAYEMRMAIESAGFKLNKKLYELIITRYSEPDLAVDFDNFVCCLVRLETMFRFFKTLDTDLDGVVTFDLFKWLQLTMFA
Protocol: (§1) FIG. 15A: Various concentrations of SNJ-1945 were incubated in a reaction with 50 μM EPLFAERK (SEQ ID NO: 22) (a CAPN1 substrate) and CAPN1 WT in activity. Data is plotted for CAPN1 as initial velocity (μM/sec) versus SNJ-1945 concentration. Addition of 1 μM SNJ-1945 slows the initial reaction rate by 100%. FIG. 15B: CAPN1 WT was incubated with and without SNJ-1945 at increasing concentrations of EPLFAERK substrate (SEQ ID NO: 22). Data is plotted for CAPN1 as initial velocity (μM/sec) versus substrate concentration. FIG. 15C: Various concentrations of SNJ-1945 were incubated in a reaction with CAPN5p.370-80 and CAPN5 WT in an activity buffer. Data is plotted for CAPN5 as initial velocity (μM/sec) versus SNJ-1945 concentration. Only after addition of 100 μM SNJ-1945 did the initial reaction rate slow to 100%. FIG. 15D: CAPN5 WT was incubated with and without SNJ-1945 at increasing concentrations of CAPN5 p.370-80 substrate. Data is plotted for CAPN5 as initial velocity (μM/sec) versus substrate concentration.
Various concentrations of SNJ-1945 were incubated in a reaction with 50 μM EPLFAERK (a CAPN1 substrate) (SEQ ID NO: 22) and CAPN1 WT in activity. Addition of 1 μM SNJ-1945 slows the initial reaction rate by 100% (FIG. 15A). CAPN1 WT was incubated with and without SNJ-1945 at increasing concentrations of EPLFAERK substrate (SEQ ID NO: 22) (FIG. 15B). […]

CAPN5 WT [2] = target: T2, CAPN5 WT (Homo sapiens, UniProt O15484); assay: Inhibition of CAPN5 WT proteolysis of CAPN5p.370-80 substrate; conditions: for effect of increasing substrate concentration on inhibition of CAPN5: increasing concentrations of CAPN5 p.370-80 substrate, with and without inhibitor
T2 sequence (O15484 whole entry): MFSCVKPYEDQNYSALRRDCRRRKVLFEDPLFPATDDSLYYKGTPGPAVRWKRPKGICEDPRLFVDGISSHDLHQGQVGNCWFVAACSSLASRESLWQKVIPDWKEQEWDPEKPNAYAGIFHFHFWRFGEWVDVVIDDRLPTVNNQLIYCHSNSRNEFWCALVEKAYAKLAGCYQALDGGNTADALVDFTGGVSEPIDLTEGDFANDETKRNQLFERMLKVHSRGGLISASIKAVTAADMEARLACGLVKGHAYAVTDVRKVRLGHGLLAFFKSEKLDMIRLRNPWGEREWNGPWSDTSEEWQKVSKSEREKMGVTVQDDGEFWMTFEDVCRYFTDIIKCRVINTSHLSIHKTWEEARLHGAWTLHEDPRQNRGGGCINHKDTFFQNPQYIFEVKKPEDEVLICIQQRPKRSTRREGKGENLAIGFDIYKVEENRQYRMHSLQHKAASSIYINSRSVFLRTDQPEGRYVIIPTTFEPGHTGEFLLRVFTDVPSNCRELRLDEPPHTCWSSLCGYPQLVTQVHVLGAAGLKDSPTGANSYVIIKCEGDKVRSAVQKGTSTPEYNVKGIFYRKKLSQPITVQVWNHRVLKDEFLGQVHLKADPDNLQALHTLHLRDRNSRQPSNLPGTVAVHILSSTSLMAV
Protocol: as §1
FIGS. 16A-16B. […] First generation lead compound CAPN5 p.370-80 was modified using amide cyclization to generate a second generation competitive cyclic inhibitor. (FIG. 16A) Various concentrations of Cyclic CAPN5 p.370-80 were incubated in a reaction with CAPN5p.370-80 and CAPN5 WT in an activity buffer. Data is plotted for CAPN5 as initial velocity (μM/sec) versus Cyclic CAPN5 p.370-80 concentration. Addition of 10 μM Cyclic CAPN5 p.370-80 slows the initial reaction rate by 40%. (FIG. 16B) CAPN5 WT was incubated with and without 10 μM Cyclic CAPN5 p.370-80 at increasing concentrations of CAPN5 p.370-80 substrate. Data is plotted for CAPN5 as initial velocity (μM/sec) versus substrate concentration.
Various concentrations of SNJ-1945 were incubated in a reaction with 50 μM EPLFAERK (a CAPN1 substrate) (SEQ ID NO: 22) and CAPN1 WT in activity. Addition of 1 μM SNJ-1945 slows the initial reaction rate by 100% (FIG. 15A). CAPN1 WT was incubated with and without SNJ-1945 at increasing concentrations of EPLFAERK substrate (SEQ ID NO: 22) (FIG. 15B). Various concentrations of SNJ-1945 were incubated in a reaction with CAPN5p.370-80 and CAPN5 WT in an activity buffer. Only after addition of 100 μM SNJ-1945 did the initial reaction rate slow to 100% (FIG. 15C). CAPN5 WT was incubated with and without SNJ-1945 at increasing concentrations of CAPN5 p.370-80 substrate (FIG. 15D).
First generation lead compound CAPN5 p.370-80 was modified using amide cyclization to generate a second generation competitive cyclic inhibitor. Various concentrations of Cyclic CAPN5 p.370-80 were incubated in a reaction with CAPN5p.370-80 and CAPN5 WT in an activity buffer. Addition of 10 μM Cyclic CAPN5 p.370-80 slows the initial reaction rate by 40% (FIG. 16A). CAPN5 WT was incubated with and without 10 μM Cyclic CAPN5 p.370-80 at increasing concentrations of CAPN5 p.370-80 substrate.

CAPN5 WT [3] = target: T2, CAPN5 WT; assay: FRET peptide proteolysis assay with CAPN5-WT; set-up: MBP (N); conditions: for proteolysis of peptide substrate by CAPN5-WT (fluorescence): FRET peptide, calpain activity buffer, 37° C.
Protocol: (§2) FIG. 2. Diagram of Assay. 10 uM of FRET substrates were added to a solution containing 2 mM DTT, 5 uM Calcium, and CAPN5 Buffer (20 mM Tris, 300 mM NaCl, pH 7.5) to a volume of 100 uL. The solution was pipetted into a 96 well plate in wells that contained 24 uM of CAPN5-WT, CAPN5-R243L, or no CAPN5. The fluorescence of each well was measured using a Tecan Infinite M200 Pro plate reader.
(§3) Peptide substrates dissolved in DMSO and H2O were incubated with WT CAPN5 at 37° C. in the presence or absence of calcium until a change in fluorescence was no longer detected. […] As expected, R243LCAPN5 (hyperactive) cleaved substrate fragments at a higher rate (FIG. 4). Inhibitor peptides were identified that serve as the lead compounds for optimization.
Proteolytic kinetics of CAPN5 is influenced by peptide length near its autoproteolytic site. Peptides substrates that were 7, 11, and 21 amino acids long were incubated in calpain activity buffer. The solution was brought to 37° C. CAPN5 was then added and fluorescence was measured. […] The kinetics data from the Michaelis-Menten and substrate inhibition equations are shown in a table (FIG. 12D).
(§4) Peptides were incubated in calpain activity buffer, and the solution was brought to 37° C. Calpain was added and fluorescence was measured. The fluorescence measured for the lead peptide, CAPN5p370-380, was plotted and lines were fit using the following substrate inhibition equation, Y=Vmax*X/(Km+X*(1+X/Ki)). […] The fluorescence measure for a previously published calpain-1 peptide, EPLFAERK (SEQ ID NO: 22), was plotted and lines were fit using the following Michaelis-Menten equation, Y=Vmax*X/(Km+X) (FIG. 13B). […] Kinetics data from the Michaelis-Menten and substrate inhibition equations are shown in a table (FIG. 13C).
Scanning modifications were made to the amino acids of the lead compound to make the bonds un-cleavable by CAPN5 (FIG. 18B). Despite modifications, the peptide still fit in the catalytic groove using docking predictions. N-terminal (EDANS) and C-terminal GLU-(DABCYL) FRET tags were added to the peptides for our standard CAPN5 assay and were dissolved in 70% DMSO (FIG. 18C). Peptides incubated for 15 minutes at various concentrations with 5 μg of MBP-CAPN5 WT. Modification of the amino acids slows the reaction rate. Data is plotted as initial velocity (uM/sec) versus peptide concentration fit to the substrate inhibition equation (FIG. 18D).
The CAPN5-370-80 peptide was modified (FIGS. 19A-19G) and the activity was evaluated (FIGS. 20A-20D). Scanning modifications were made to the amino acids of the peptide to make the bonds un-cleavable by CAPN5. The location of the modifications are denoted with circles N-terminal (EDANS) and C-terminal GLU-(DABCYL) FRET tags were added to the peptides for the standard CAPN5 assay and were dissolved in 70% DMSO. Peptides incubated for 15 minutes at various concentrations with 5 μg of MBP-CAPN5 WT in a buffer containing 20 mM Tris, 300 mM NaCl, 2 mM DTT, pH 7.5 to measure activity (FIG. 20C). Data is plotted as initial velocity (uM/sec) versus peptide concentration. Modification of the amino acids slows the reaction rate.

CAPN1 WT [4] = target: T1, CAPN1 WT; assay: FRET peptide proteolysis assay with CAPN1; conditions: calpain activity buffer, 37° C.
Protocol: as §4
CAPN5 specifically targets a peptide corresponding to its own autocatalytic site and not homologous regions in other calpains. […] Peptides corresponding to the homologous regions of the CAPN5 autoprotolysis site in other calpain family members were incubated with CAPN5 protease. […] Peptides tested in FIG. 14B were incubated with CAPN1. […] Kinetics data from the Michaelis-Menten and substrate inhibitions equations are shown in a table (FIG. 14D).

CAPN5-R243L = CAPN5-R243L (Homo sapiens, UniProt O15484, R243L); assay: FRET peptide proteolysis assay with CAPN5-R243L; conditions: hyperactive R243L mutant
Chain of CAPN5-R243L (O15484 whole entry R243L): as the sequence (O15484 whole entry) above, with R243L counted along it
Protocol: as §2, §3

Molecule: COCCOCCOC(=O)N[C@@H](CC(C)C)C(=O)N[C@@H](Cc1ccccc1)C(=O)C(=O)NC1CC1 [SNJ-1945]
- inhibition of CAPN1 (in words) (CAPN1 WT [1]): inhibits CAPN1
- slowing of initial reaction rate of CAPN1 (CAPN1 WT [1]; 1 μM SNJ-1945, 50 μM EPLFAERK substrate): 100%
- inhibition of CAPN5 (in words) (CAPN5 WT [2]): not a good inhibitor of CAPN5
- slowing of initial reaction rate of CAPN5 (CAPN5 WT [2]; 100 μM SNJ-1945, CAPN5p.370-80 substrate): 100%
- effect of increasing substrate concentration on inhibition of CAPN5 (CAPN5 WT [2]): overcomes the inhibition

Molecule: CAPN5p.372-378: 7 amino acid peptide substrate near the CAPN5 autoproteolytic site (NRGGGCI)
- proteolysis of peptide substrate by CAPN5-WT (fluorescence) (CAPN5 WT [3]): mild cleavage

Molecule: CAPN14 peptide: peptide of the CAPN14 region homologous to the CAPN5 autoproteolysis site (RGFNSGGSQPNAETFWTNPQFR; listed as Homo sapiens)
- proteolysis of peptide substrate by CAPN5-WT (fluorescence) (CAPN5 WT [3]): some proteolysis

Molecule: Cyclic CAPN5 p.370-80: CAPN5 p.370-80 modified by amide cyclization, second generation competitive cyclic inhibitor
- slowing of initial reaction rate of CAPN5 (CAPN5 WT [2]; 10 μM Cyclic CAPN5 p.370-80, CAPN5p.370-80 substrate): 40%
- effect of increasing substrate concentration on inhibition of CAPN5 (CAPN5 WT [2]): does not overcome inhibition

Molecule: EPLFAERK [reference compound]
- proteolysis of peptide substrate by CAPN1 (fluorescence) (CAPN1 WT [4]): specific to CAPN1; also recorded: high proteolysis
- proteolysis of peptide substrate by CAPN5-WT (fluorescence) (CAPN5 WT [3]): not proteolyzed by CAPN5; also recorded: very limited proteolysis

Molecule: KIEIVRKKPIFKKATV [PDGFB (155-170)]
- proteolysis of peptide substrate by CAPN5-R243L (fluorescence) (CAPN5-R243L): greatest fluorescent intensity

Molecule: RQNRGGGCINH (listed as Homo sapiens) [CAPN5-370-380]
- proteolysis of peptide substrate by CAPN5-R243L (fluorescence) (CAPN5-R243L): most sensitive to cleavage
- proteolysis of peptide substrate by CAPN5-R243L (fluorescence) (CAPN5-R243L; listed as CAPN5 (370-380)): greatest fluorescent intensity
- proteolysis of peptide substrate by CAPN1 (fluorescence) (CAPN1 WT [4]; listed as CAPN5 (370-380)): not proteolyzed by CAPN1
- proteolysis of peptide substrate by CAPN1 (fluorescence) (CAPN1 WT [4]; listed as CAPN5p370-380): very limited proteolysis
- proteolysis of peptide substrate by CAPN5-WT (fluorescence) (CAPN5 WT [3]): most sensitive to cleavage
- proteolysis of peptide substrate by CAPN5-WT (fluorescence) (CAPN5 WT [3]; listed as 11 aa peptide): rapid and high cleavage
- proteolysis of peptide substrate by CAPN5-WT (fluorescence) (CAPN5 WT [3]; listed as CAPN5 (370-380)): specific to CAPN5
- proteolysis of peptide substrate by CAPN5-WT (fluorescence) (CAPN5 WT [3]; listed as CAPN5 (p370-380)): greatest fluorescent intensity
- proteolysis of peptide substrate by CAPN5-WT (fluorescence) (CAPN5 WT [3]; listed as CAPN5p370-380): high proteolysis

Molecule: RQNRGGGCINHKDTFFQNPQY (listed as Homo sapiens) [CAPN5-370-390]
- proteolysis of peptide substrate by CAPN5-R243L (fluorescence) (CAPN5-R243L): greatest fluorescent intensity
- proteolysis of peptide substrate by CAPN5-WT (fluorescence) (CAPN5 WT [3]): cleaved slower
- substrate inhibition of CAPN5 cleavage (CAPN5 WT [3]; peptide length series near autoproteolytic site): does not show cleavage substrate inhibition
